pIC50: −log10 of the molar value. Read-outs that look alike come from different tables or passages of the source. Ends that are not written are not given here. Peptide text beside a SMILES is read from it. * marks the point of attachment. X1 = C=CC1=C(C)c2cc3[nH]c(cc4nc(cc5[nH]c(cc1n2)c(C)c5CCC(=O)*)C(CCC(=O)O)=C4C)c(C)c3C=C; X3 = C=CC1=C(C)c2cc3[nH]c(cc4nc(cc5[nH]c(cc1n2)c(C)c5CCC(=O)O)C(CCC(=O)*)=C4C)c(C)c3C=C; X2 = CCC1=C(C)c2cc3[nH]c(cc4nc(cc5[nH]c(cc1n2)c(C)c5CCC(=O)O)C(CCC(=O)*)=C4C)c(C)c3CC; X4 = CCC1=C(C)c2cc3[nH]c(cc4nc(cc5[nH]c(cc1n2)c(C)c5CCC(=O)*)C(CCC(=O)O)=C4C)c(C)c3CC
Legend:
[1] = Serum stability in human serum; format: in vitro ADME; settings: for half-life at 0.05 mM: human serum (1:1 v/v with HEPES buffer), pH 7.8, 37 °C, read-out: Serum half-life time (converted)
Description: Next, 600 µL of the solution comprising the conjugate or peptide were mixed (1:1 v/v) with 600 µL of human serum, to reach a final concentration of 0.05 mM. The mixture was incubated at 37 °C and, at various time points, 50 µL (in triplicate) were taken and precipitated with 200 µL cold methanol. The samples were centrifuged at 13000 rpm, 10 min, +4 °C. Afterwards, 50 µL of each supernatant were injected on an LC-20AD instrument (Shimadzu) equipped with a Luna C18 column (4.6 mm × 50 mm, 3 µm, Phenomenex, USA) and analyzed using a 0%-95% linear gradient of MeCN into 0.1% TFA in H2O over 15 min with 1 mL/min flow rate. PDA detection at 220 nm and 401 nm was used and the half-life times were calculated by peak area integration at 401 nm, the λmax of MP and PP. Controls included blank serum (25 µL each of 1:1 v/v serum + HEPES buffer, then precipitation with 200 µL cold methanol), untreated conjugate/peptide (25 µL of 0.1 mM stock in HEPES buffer + 25 µL HEPES buffer, then precipitation with 200 µL cold methanol), and a zero-time sample (200 µL cold methanol + 25 µL serum + 25 µL 0.1 mM conjugate/peptide stock), the conjugate/peptide added last to avoid any contact with protease. Controls were analyzed by LC and LC-MS as described above.

[2] = test system: JEG-3 cells; assay: in vitro BPB integrity assay (FD4 permeability) after translocation assay; format: cell-based
[3] = test system: ZIKV^BR; assay: ZIKV inactivation assay (plaque assay on Vero cells); format: cell-based, Zika virus; settings: virus pre-treated 1 h at 37 °C, in the dark, 0.01-50 µM
[4] = test system: JEG-3 cells; format: in vitro ADME; settings: human, 24 h, 10 µM
Description: (§1) PPC translocation (%) was calculated as follows: […]

[5] = test system: HBEC-5i cells; format: in vitro ADME; settings: human, 24 h, 10 µM
Description: as §1

[6] = test system: HBEC-5i cells
Description: (§2) After 24 h incubation with conjugates in the set-up shown in Figure 1, an in vitro integrity assay was performed. HBEC-5i (for BBB) or JEG-3 (for BPB) cells were washed twice with PBS and once with a medium without phenol red. DMEM:F12 medium was used with HBEC-5i cells and EMEM medium was used with JEG-3 cells. Then, previously diluted 4 kDa fluorescein isothiocyanate-dextran (FD4) (Sigma-Aldrich, Spain) in the medium indicated above for each cell line and without phenol red to an absorbance of 0.1 was added to the apical side (1) and incubated for 2 h. Samples were collected at the basolateral side (2), and fluorescence intensity was measured at λex=493 nm and λem=520 nm using a Varioskan Lux plate reader. Barrier integrity was evaluated from FD4 permeability as follows: FD4 Permeability(%) = (Fi −Fcells)/(FFD4 −FMedium) × 100 [formula] where Fi is the fluorescence intensity of the sample at the basolateral side (2), Fcells is the intrinsic fluorescence intensity of cells without FD4 incubation, FFD4 is the intensity of FD4 stock initially added to the apical side (1), and FMedium is the intensity of the medium indicated above for each cell line and without phenol red.

[7] = test system: HBEC-5i cells; settings: 10 µM on apical side, 24 h incubation; percentage of compound in the basolateral side
Description: HBEC-5i cells were cultured as a monolayer (3) on T-flasks in DMEM:F12 supplemented with 10% (v/v) FBS, 1% (v/v) Pen-Strep and 1% (v/v) ECGS. Cells were grown in a humidified atmosphere of 5% CO2 at 37 °C (MCO-18AIC (UV), Sanyo, Japan) with the medium changed every other day. Cells were allowed to grow until confluence in a culture T-flask, then carefully harvested with trypsin-EDTA and seeded (8000 cells/well) into tissue culture 24-well inserts (4) (transparent polyester membrane with 1.0 µm pores) (BD Falcon, USA) pre-coated with attachment factor protein solution. The medium was changed every other day for 5-8 days, afterwards cells were washed with 1 × PBS followed by DMEM:F12 medium without phenol red. Next, the conjugates were diluted in DMEM:F12 without phenol red, until reaching a final 10 µM concentration, and were added to the apical side (1) of the in vitro BBB model.
(§3) Conjugate translocation was determined by fluorescence intensity (λex= 410 nm, λem = 625 nm for MP conjugates; λex=410 nm, λem=635 nm for PP conjugates). […] After 24 h incubation, samples from the basolateral side (2) were collected and analyzed. Fluorescence was measured in a Varioskan Lux plate reader (Thermo Scientific). PPC translocation (%) was calculated as follows: PPC translocation(%) = (F_i−Fcells)/(F_PPC−F_Medium) × 100 [formula] where Fi is the fluorescence intensity of the sample collected at the basolateral side (2), Fcells is the intrinsic fluorescence intensity of cells without incubation with a peptide-protein conjugate PPC, FPPC is the intensity of total PPC initially added to the transwell apical side (1), and FMedium is the intensity of DMEM:F12 medium without phenol red.

[8] = test system: JEG-3 cells; settings: FD4 content in basolateral side after 24 h incubation with compound, then 2 h FD4; untreated BPB 1.23%
Description: as §2
JEG-3 cells were cultured as a monolayer on T-flasks in EMEM supplemented with 10% (v/v) FBS and 1% (v/v) Pen-Strep. Cells were grown in a humidified atmosphere of 5% CO2 at 37 °C with the medium changed every other day. Cells were allowed to grow until confluence in a culture T-flask, then carefully harvested with trypsin-EDTA and seeded (3000 cells/well) onto rat-tail collagen-coated tissue culture 24-well inserts (4). A cellular monolayer (3) with low permeability was formed 5 days after the incubation on the tissue culture insert (4).

[9] = test system: ZIKV^BR; settings: virus pre-treated 1 h at 37 °C, in the dark, 0.01-50 µM
Description: ZIKV^BR was propagated in C6/36 cells using a multiplicity of infection (MOI) of 0.01. After infection, cells were cultured for 7 days. The culture medium collected from the infected cultures was centrifuged at 700 g to remove cellular debris, stored in aliquots at -80 °C and titrated by plaque assay.
To determine the effect of conjugates on ZIKV^BR as prepared above, 10^5 plaque forming units (PFU) were pre-treated with different concentrations of conjugates in the 0.01-50 µM range for 1 h at 37 °C, in the dark. After treatment, viral samples were serially diluted (10-fold) for titration by plaque assay. Samples were incubated for 1 h at 37 °C and 5% CO2 with Vero cells. After infection, the medium was removed and 1 mL DMEM containing 1% (v/v) FBS, 100 U/mL penicillin, 100 µg/mL streptomycin and 1.5% carboxymethylcellulose was added to each well. The plates were incubated at 37 °C and 5% CO2. After 5 days cells were fixed by 1 mL of 4% (v/v) formaldehyde in H2O for 30 min. Each plate was washed and stained with a 1% (v/v) crystal violet, 20% (v/v) ethanol solution. The number of plaques on each well was counted and corrected for well dilution to determine the pfu/mL number. The half-maximum inhibitory concentration (IC50) was determined by non-linear regression with sigmoidal profile and variable slope using the software Graphpad Prism (version 6.0), only on treatments that achieved total inhibition.

[10] = test system: HBEC-5i cells; settings: concentrations of up to 50 µM, 24 h
Description: (§4) HBEC-5i cells and JEG-3 cells were plated in attachment factor protein and rat-tail collagen, respectively, pre-coated 96-well flat bottom clear, black polystyrene plate (Corning, New York, USA). Afterwards cells were cultured in complete medium at 37 °C in a 5% CO2 atmosphere, with medium replaced every 2 days. When the cellular monolayer was formed, cells were treated with various concentrations of conjugates in the 6.25-50 µM range, for 24 h at 37 °C in a 5% CO2 atmosphere. Viability was evaluated by the CellTiter-Blue® assay (Promega, WI, USA), based on resazurin reduction into highly fluorescent resorufin by metabolically active cells. By distinguishing metabolic from non-metabolic cells, cytotoxicity can be indirectly determined. After incubation, cells were washed with PBS, pH 7.4, and 15 µL of CellTiterBlue® reagent in 100 µL of complete medium was added to the cells and incubated for 1.5 h at 37 °C in 5% CO2. Fluorescence (λex=560 nm, λem=590 nm), was measured in a Varioskan Lux plate reader. Complete medium and medium containing 0.25% Triton X-100 were used as positive and negative controls (100 and 0% viability), respectively. Cell viability (%) was determined as: Cell viability(%) = (F_treated−F_blank)/(F_(nontreated)−F_blank) × 100 [formula] where Ftreated is the fluorescence intensity of cells treated with a conjugate, Fnon treated is the fluorescence of untreated cells and Fblank is the fluorescence of CellTiterBlue® reagent in complete medium without cells.

[11] = test system: HBEC-5i cells; settings: FD4 content in basolateral side after 24 h incubation with compound, then 2 h FD4; untreated BBB 10.3%
Description: as §2

[12] = test system: JEG-3 cells; settings: 10 µM on apical side, 24 h incubation; percentage of compound in the basolateral side
Description: as §3
JEG-3 cells were cultured as a monolayer on T-flasks in EMEM supplemented with 10% (v/v) FBS and 1% (v/v) Pen-Strep. Cells were grown in a humidified atmosphere of 5% CO2 at 37 °C with the medium changed every other day. Cells were allowed to grow until confluence in a culture T-flask, then carefully harvested with trypsin-EDTA and seeded (3000 cells/well) onto rat-tail collagen-coated tissue culture 24-well inserts (4). A cellular monolayer (3) with low permeability was formed 5 days after the incubation on the tissue culture insert (4). BPB translocation and integrity measurement methods are identical to those for the BBB in vitro model defined above.

[13] = test system: JEG-3 cells; settings: JEG-3, concentrations of up to 50 µM, 24 h
Description: as §4

[14] = test system: ZIKV; settings: read-out: IC50 value for inactivation of ZIKV, cited from earlier work

Row | Compound | BBB translocation (%) [7] [%] | BPB FD4 (%) [8] [%] | half-life at 0.05 mM [1] [h] | pIC50 [9] | altered cell viability [10] | BBB FD4 (%) [11] [%] | BPB translocation (%) [12] [%] | altered cell viability [13] | further results
1 | VQQLTKRFSL-NH2 [Peptide having SEQ ID NO1, reference compound] |  |  |  |  |  |  |  |  | Serum half-life time ([1]; 0.05 mM, 37 °C): 0.73 h
2 | C=CC1=C(C)c2cc3[nH]c(cc4nc(cc5[nH]c(cc1n2)c(C)c5CCC(=O)O)C(CCC(=O)O)=C4C)c(C)c3C=C [PP, protoporphyrin IX] |  |  |  |  |  |  |  |  | BPB FD4 (%) ([2]; human, 2 h, 10 µM): 0.87%; pIC50 ([3]; Zika virus, Vero): < 4.30; BPB translocation (%) [4]: 14.2%; BBB translocation (%) [5]: 47.8%; BBB FD4 (%) ([6]; human, 2 h, 10 µM): 24.7%
3 | C=CC1=C(C)c2cc3[nH]c(cc4nc(cc5[nH]c(cc1n2)c(C)c5CCC(=O)O)C(CCC(=O)NCCCC[C@H](NC(=O)[C@H](Cc1ccc(O)cc1)NC(=O)[C@H](CCC(=O)O)NC(=O)[C@H](CCC(=O)O)NC(=O)[C@H](CCC(N)=O)NC(=O)[C@@H](NC(=O)CNC(=O)[C@@H](N)CO)[C@@H](C)O)C(N)=O)=C4C)c(C)c3C=C [Compound P4-PP] (H-SGTQEEYK(X3)-NH2) | 42.8 | 1.2 | 3.3 | < 4.30 | none | 10.6 | 15.6 | none | 
4 | CCC1=C(C)c2cc3[nH]c(cc4nc(cc5[nH]c(cc1n2)c(C)c5CCC(=O)O)C(CCC(=O)NCCCC[C@H](NC(=O)[C@H](Cc1ccc(O)cc1)NC(=O)[C@H](CCC(=O)O)NC(=O)[C@H](CCC(=O)O)NC(=O)[C@H](CCC(N)=O)NC(=O)[C@@H](NC(=O)CNC(=O)[C@@H](N)CO)[C@@H](C)O)C(N)=O)=C4C)c(C)c3CC [Compound P4-MP] (H-SGTQEEYK(X2)-NH2) | 45.8 | 1.1 | 3 | < 4.30 | none | 15.6 | 13 | none | 
5 | CCC1=C(C)c2cc3[nH]c(cc4nc(cc5[nH]c(cc1n2)c(C)c5CCC(=O)N[C@H](C(=O)N[C@@H](CCC(N)=O)C(=O)N[C@@H](CCC(N)=O)C(=O)N[C@@H](CC(C)C)C(=O)N[C@H](C(=O)N[C@@H](CCCCN)C(=O)N[C@@H](CCCNC(=N)N)C(=O)N[C@@H](Cc1ccccc1)C(=O)N[C@@H](CO)C(=O)N[C@@H](CC(C)C)C(N)=O)[C@@H](C)O)C(C)C)C(CCC(=O)O)=C4C)c(C)c3CC [MP-P1] (X4-VQQLTKRFSL-NH2) | 30 | 1.16 | 16.2 | < 4.30 | none | 19.9 | 6.9 | none | 
6 | CCC1=C(C)c2cc3[nH]c(cc4nc(cc5[nH]c(cc1n2)c(C)c5CCC(=O)O)C(CCC(=O)NCCCC[C@H](NC(=O)[C@H](CC(C)C)NC(=O)[C@H](CO)NC(=O)[C@H](Cc1ccccc1)NC(=O)[C@H](CCCNC(=N)N)NC(=O)[C@H](CCCCN)NC(=O)[C@@H](NC(=O)[C@H](CC(C)C)NC(=O)[C@H](CCC(N)=O)NC(=O)[C@H](CCC(N)=O)NC(=O)[C@@H](N)C(C)C)[C@@H](C)O)C(N)=O)=C4C)c(C)c3CC [Compound P2-MP] (H-VQQLTKRFSLK(X2)-NH2) | 25.5 | 1.30 | 10.7 | < 4.30 | none | 14.5 | 6.9 | none | 
7 | CCC1=C(C)c2cc3[nH]c(cc4[nH]c(cc5nc(cc1n2)C(C)=C5CC)c(C)c4CCC(=O)O)c(CCC(=O)O)c3C [MP, mesoporphyrin IX] |  |  |  |  |  |  |  |  | BPB FD4 (%) [2]: 1.68%; pIC50 [3]: < 4.30; BBB FD4 (%) [6]: 17.9%
8 | C=CC1=C(C)c2cc3[nH]c(cc4nc(cc5[nH]c(cc1n2)c(C)c5CCC(=O)O)C(CCC(=O)N[C@@H](CO)C(=O)NCC(=O)N[C@H](C(=O)N[C@@H](CCC(N)=O)C(=O)N[C@@H](CCC(=O)O)C(=O)N[C@@H](CCC(=O)O)C(=O)N[C@@H](Cc1ccc(O)cc1)C(N)=O)[C@@H](C)O)=C4C)c(C)c3C=C [PP-P3] (X3-SGTQEEY-NH2) | 43.2 | 1.79 | 3.7 | < 4.30 | none | 9.6 | 18.9 | none | 
9 | C=Cc1c(C)c2cc3[nH]c(cc4nc(cc5nc(cc1[nH]2)C(C)=C5CCC(=O)[O-])C(CCC(=O)[O-])=C4C)c(C)c3C=C.[Co+2] [CoPPIX] |  |  |  |  |  |  |  |  | pIC50 ([14]; with light activation): 5.24; pIC50 ([14]; without light activation): 5.60
10 | C=CC1=C(C)c2cc3[nH]c(cc4nc(cc5[nH]c(cc1n2)c(C)c5CCC(=O)N[C@H](C(=O)N[C@@H](CCC(N)=O)C(=O)N[C@@H](CCC(N)=O)C(=O)N[C@@H](CC(C)C)C(=O)N[C@H](C(=O)N[C@@H](CCCCN)C(=O)N[C@@H](CCCNC(=N)N)C(=O)N[C@@H](Cc1ccccc1)C(=O)N[C@@H](CO)C(=O)N[C@@H](CC(C)C)C(N)=O)[C@@H](C)O)C(C)C)C(CCC(=O)O)=C4C)c(C)c3C=C [(I)] (X1-VQQLTKRFSL-NH2) | 43.6 | 0.83 | 22.2 |  | none | 13.6 | 21.2 | none | 
11 | CCC1=C(C)c2cc3[nH]c(cc4nc(cc5[nH]c(cc1n2)c(C)c5CCC(=O)N[C@@H](CO)C(=O)NCC(=O)N[C@H](C(=O)N[C@@H](CCC(N)=O)C(=O)N[C@@H](CCC(=O)O)C(=O)N[C@@H](CCC(=O)O)C(=O)N[C@@H](Cc1ccc(O)cc1)C(N)=O)[C@@H](C)O)C(CCC(=O)O)=C4C)c(C)c3CC [MP-P3] (X4-SGTQEEY-NH2) | 46.6 | 1.17 | 21.1 | 4.60 | none | 14.6 | 14.2 | none | 
12 | C=CC1=C(C)c2cc3[nH]c(cc4nc(cc5[nH]c(cc1n2)c(C)c5CCC(=O)NCCCC[C@H](NC(=O)[C@H](CC(C)C)NC(=O)[C@H](CO)NC(=O)[C@H](Cc1ccccc1)NC(=O)[C@H](CCCNC(=N)N)NC(=O)[C@H](CCCCN)NC(=O)[C@@H](NC(=O)[C@H](CC(C)C)NC(=O)[C@H](CCC(N)=O)NC(=O)[C@H](CCC(N)=O)NC(=O)[C@@H](N)C(C)C)[C@@H](C)O)C(N)=O)C(CCC(=O)O)=C4C)c(C)c3C=C [Compound P2-PP] (H-VQQLTKRFSLK(X1)-NH2) | 35.1 | 0.90 | 3.6 | < 4.30 | none | 13.7 | 7.9 | none | 

Source: EP4233917A1, “ANTI-INFECTIVE CONJUGATE FOR USE IN THE TREATMENT OF ZIKA VIRUS INFECTION” (Universitat Pompeu Fabra, priority 2022, dated 2023)
